In US20180105569A1 (INDIANA UNIVERSITY RESEARCH AND TECHNOLOGY, published 2018):
Read-outs that look alike come from different tables or passages of the source. Numbered stars: 1 amine (or outer) side, 2 acyl side, 3 side chain; on linkers, the order of the positions; unused ones are H or OH. Square brackets hold non-standard residues; d marks the D form. Side chains are listed from the residue outwards. Ends that are not written are not given here. * marks the point of attachment. 4‑HPA = 4-hydroxyphenylacetic acid, O=C(Cc1ccc(O[*:3])cc1)[*:2]; C16 acyl = C16 fatty acyl group bound via a gamma-Glu spacer; γGlu = O=C(O)[C@H](CCC(=O)[*:2])N[*:1]; Desaminotyrosyl = O=C(CCc1ccc(O)cc1)*; Palmitoyl = CCCCCCCCCCCCCCCC(=O)*

B1: peptide of SEQ ID NO: 144 (peptide)
peptide: Ac-[dY]AEGTFTSDK([γGlu-Palmitoyl])SKYLDERAAQDFVQWLLEAGPSSGAPPPS-NH2
SMILES: CCCCCCCCCCCCCCCC(=O)N[C@@H](CCC(=O)NCCCC[C@H](NC(=O)[C@H](CC(=O)O)NC(=O)[C@H](CO)NC(=O)[C@@H](NC(=O)[C@H](Cc1ccccc1)NC(=O)[C@@H](NC(=O)CNC(=O)[C@H](CCC(=O)O)NC(=O)[C@H](C)NC(=O)[C@@H](Cc1ccc(O)cc1)NC(C)=O)[C@@H](C)O)[C@@H](C)O)C(=O)N[C@@H](CO)C(=O)N[C@@H](CCCCN)C(=O)N[C@@H](Cc1ccc(O)cc1)C(=O)N[C@@H](CC(C)C)C(=O)N[C@@H](CC(=O)O)C(=O)N[C@@H](CCC(=O)O)C(=O)N[C@@H](CCCNC(=N)N)C(=O)N[C@@H](C)C(=O)N[C@@H](C)C(=O)N[C@@H](CCC(N)=O)C(=O)N[C@@H](CC(=O)O)C(=O)N[C@@H](Cc1ccccc1)C(=O)N[C@H](C(=O)N[C@@H](CCC(N)=O)C(=O)N[C@@H](Cc1c[nH]c2ccccc12)C(=O)N[C@@H](CC(C)C)C(=O)N[C@@H](CC(C)C)C(=O)N[C@@H](CCC(=O)O)C(=O)N[C@@H](C)C(=O)NCC(=O)N1CCC[C@H]1C(=O)N[C@@H](CO)C(=O)N[C@@H](CO)C(=O)NCC(=O)N[C@@H](C)C(=O)N1CCC[C@H]1C(=O)N1CCC[C@H]1C(=O)N1CCC[C@H]1C(=O)N[C@@H](CO)C(N)=O)C(C)C)C(=O)O
B2: peptide of SEQ ID NO: 146 (peptide)
peptide: Ac-[dY]AQGTFTSDK([γGlu-Palmitoyl])SKYLDERAAQDFVQWLLEAGPSSGAPPPS-NH2
SMILES: CCCCCCCCCCCCCCCC(=O)N[C@@H](CCC(=O)NCCCC[C@H](NC(=O)[C@H](CC(=O)O)NC(=O)[C@H](CO)NC(=O)[C@@H](NC(=O)[C@H](Cc1ccccc1)NC(=O)[C@@H](NC(=O)CNC(=O)[C@H](CCC(N)=O)NC(=O)[C@H](C)NC(=O)[C@@H](Cc1ccc(O)cc1)NC(C)=O)[C@@H](C)O)[C@@H](C)O)C(=O)N[C@@H](CO)C(=O)N[C@@H](CCCCN)C(=O)N[C@@H](Cc1ccc(O)cc1)C(=O)N[C@@H](CC(C)C)C(=O)N[C@@H](CC(=O)O)C(=O)N[C@@H](CCC(=O)O)C(=O)N[C@@H](CCCNC(=N)N)C(=O)N[C@@H](C)C(=O)N[C@@H](C)C(=O)N[C@@H](CCC(N)=O)C(=O)N[C@@H](CC(=O)O)C(=O)N[C@@H](Cc1ccccc1)C(=O)N[C@H](C(=O)N[C@@H](CCC(N)=O)C(=O)N[C@@H](Cc1c[nH]c2ccccc12)C(=O)N[C@@H](CC(C)C)C(=O)N[C@@H](CC(C)C)C(=O)N[C@@H](CCC(=O)O)C(=O)N[C@@H](C)C(=O)NCC(=O)N1CCC[C@H]1C(=O)N[C@@H](CO)C(=O)N[C@@H](CO)C(=O)NCC(=O)N[C@@H](C)C(=O)N1CCC[C@H]1C(=O)N1CCC[C@H]1C(=O)N1CCC[C@H]1C(=O)N[C@@H](CO)C(N)=O)C(C)C)C(=O)O
B3: peptide of SEQ ID NO: 145 (peptide)
peptide: XAEGTFTSDKSKYLDERAAQDFVQWLLEGGPSSGAPPPS
modifications: position 1 Des-NH2-Tyr (desamino L-Tyr); position 2 Ala; C-terminal amide; other non-coded or acylated residues as in the sequence listing

Key:
Assay in all cases: cell-based or functional assay
GLP-1 receptor [1] = target: T1, GLP-1 receptor (UniProt P43220 24-463, limits assumed)
glucagon receptor [2] = target: T2, glucagon receptor (UniProt P47871 26-477, limits assumed)
GIP receptor [3] = target: T3, GIP receptor (UniProt P48546 22-466, limits assumed)
T3 sequence (looked up): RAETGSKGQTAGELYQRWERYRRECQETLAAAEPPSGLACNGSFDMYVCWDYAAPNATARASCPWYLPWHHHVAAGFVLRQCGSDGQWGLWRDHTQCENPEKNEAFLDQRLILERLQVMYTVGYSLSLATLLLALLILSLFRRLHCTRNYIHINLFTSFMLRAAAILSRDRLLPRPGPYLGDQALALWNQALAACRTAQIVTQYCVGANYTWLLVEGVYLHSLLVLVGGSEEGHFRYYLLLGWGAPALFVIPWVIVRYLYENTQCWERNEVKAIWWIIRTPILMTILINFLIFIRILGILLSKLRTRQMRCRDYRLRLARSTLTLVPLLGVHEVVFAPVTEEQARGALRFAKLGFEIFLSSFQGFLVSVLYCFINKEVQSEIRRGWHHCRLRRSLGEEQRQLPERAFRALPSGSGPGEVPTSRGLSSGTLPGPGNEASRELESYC

GLP-1 receptor [4] = target: T1, GLP-1 receptor; remark: listed apart in the source
glucagon receptor [5] = target: T2, glucagon receptor; remark: listed apart in the source
GIP receptor [6] = target: T3, GIP receptor; remark: listed apart in the source

T2 sequence (P47871 26-477 limits assumed): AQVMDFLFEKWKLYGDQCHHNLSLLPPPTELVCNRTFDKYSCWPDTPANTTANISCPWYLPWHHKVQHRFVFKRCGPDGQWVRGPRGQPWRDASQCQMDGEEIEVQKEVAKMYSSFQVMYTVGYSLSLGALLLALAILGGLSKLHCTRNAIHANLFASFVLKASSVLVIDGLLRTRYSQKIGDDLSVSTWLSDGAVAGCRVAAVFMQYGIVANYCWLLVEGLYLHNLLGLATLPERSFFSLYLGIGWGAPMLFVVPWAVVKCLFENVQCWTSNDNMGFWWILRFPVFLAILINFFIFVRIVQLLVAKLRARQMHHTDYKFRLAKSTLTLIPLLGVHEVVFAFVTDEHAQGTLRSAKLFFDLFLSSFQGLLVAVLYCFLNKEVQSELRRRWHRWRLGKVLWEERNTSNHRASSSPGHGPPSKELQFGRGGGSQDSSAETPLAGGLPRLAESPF

| Binder | EC50 at GLP-1 Receptor (cAMP luciferase reporter, HEK293) (GLP-1 receptor [1]) [nM] | EC50 at Glucagon Receptor (cAMP luciferase reporter, HEK293) (glucagon receptor [2]) [nM] | EC50 at GIP Receptor (cAMP luciferase reporter, HEK293) (GIP receptor [3]) [nM] | EC50 at GLP-1 Receptor (cAMP luciferase reporter, HEK293) (GLP-1 receptor [4]) [nM] | EC50 at Glucagon Receptor (cAMP luciferase reporter, HEK293) (glucagon receptor [5]) [nM] | EC50 at GIP Receptor (cAMP luciferase reporter, HEK293) (GIP receptor [6]) [nM] |
| --- | --- | --- | --- | --- | --- | --- |
| Ac-[dY]AQGTFTSDK([γGlu-Palmitoyl])SKYLDERAAQDFVQWLLDLGPSSGAPPPS-NH2 [peptide of SEQ ID NO: 153] | 0.017 | 0.021 | 0.018 | – | – | – |
| B1 | – | – | – | 0.017 | 1.3 | 0.003 |
| B2 | 0.007 | 0.009 | 0.006 | – | – | – |
| [Desaminotyrosyl]AQGTFTSDYSKYLDERAAQDFVQWLLEGGPSSGAPPPSK(Palmitoyl)G-NH2 [peptide of SEQ ID NO: 157] | – | – | – | 0.013 | 0.047 | 0.059 |
| [4‑HPA]AQGTFTSDK([γGlu-C16 acyl])SKYLDERAAQDFVQWLLEGGPSSGAPPPS-NH2 [peptide of SEQ ID NO: 156] | – | – | – | 0.002 | 0.011 | 0.042 |
| Ac-[dY]ALGTFTSDK([γGlu-Palmitoyl])SKYLDERAAQDFVQWLLEGGPSSGAPPPS-NH2 [peptide of SEQ ID NO: 142] | – | – | – | 0.005 | 0.103 | 0.002 |
| B3 | – | – | – | – | 3.73 | 0.003 |
| Ac-[dH]AQGTFTSDK([γGlu-Palmitoyl])SKYLDERAAQDFVQWLLEAGPSSGAPPPS-NH2 [peptide of SEQ ID NO: 151] | – | – | – | 0.002 | 0.003 | 0.014 |
| Ac-[dY]AQGTFTSDYSKYLDERAAQDFVQWLLEAGPSSGAPPPSK([γGlu-γGlu-Palmitoyl])G-NH2 [peptide of SEQ ID NO: 159] | – | – | – | 0.009 | 0.04 | 0.08 |
